Tests used:
recombinant human CD33 [1] = target: T1, recombinant human CD33 (human, UniProt P20138 18-259, limits assumed); test: ELISA, coated recombinant human CD33, purified His/Flag-tagged VH, anti-Flag-HRP
T1 construct: also called coated CD33
Method: (§1) 50 μl of the diluted recombinant human CD33 in PBS at 2 ug/ml was coated in a 96-well plate at 4° C. overnight. Purified ScFv or VHs (from above) with His and Flag tags were serially diluted and added into the target protein coated wells. After washing, a 1:3000 diluted HRP conjugated anti-Flag antibody was added for 1 hr at RT. After washing, 3, 3, 5, 5′-Tetramethylbenzidine (TMB) substrate was added, 1N H₂SO₄ was added to stop the reaction after incubation at room temperature for 10 minutes, and the O.D. was read at 450 nm to quantify the relative ability of ScFv to bind CD33.

recombinant human CD33 [2] = target: T1, recombinant human CD33; test: ELISA, coated recombinant human CD33, purified His/Flag-tagged ScFv, anti-Flag-HRP
Method: as §1

T1 sequence (P20138 18-259 limits assumed): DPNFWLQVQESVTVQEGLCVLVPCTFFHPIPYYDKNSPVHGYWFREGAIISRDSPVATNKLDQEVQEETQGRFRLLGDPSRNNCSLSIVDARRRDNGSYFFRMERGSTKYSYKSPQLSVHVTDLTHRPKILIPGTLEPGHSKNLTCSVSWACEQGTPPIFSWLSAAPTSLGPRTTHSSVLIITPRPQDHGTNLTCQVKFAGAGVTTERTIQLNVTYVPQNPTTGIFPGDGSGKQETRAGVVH

B1: m1033-2 (VH-2) human anti-CD33 VH domain binder, soluble (VHH)
VHH: EVQLVESGGGLVQPGGSLRLSCAASGFTFSSYGMSWVRQAPRKGLEWIGEINHSGSTNYNPSLKSRVTISRDNSKNTLYLQMNSLRAEDTATYYCARPLNYYYYYMDVWGKGTTVTVSS
notes: Human heavy chain variable domain only (not camelid), from a phage library, expressed in E. coli HB2151 and purified on Ni-NTA; also called CD33 VH-2; not shown: His and Flag tags
Q: Does B1 bind (recombinant human CD33 [1])?
A: binds

B2: m1033-10 (ScFv10) human anti-CD33 ScFv binder, soluble (scFv)
scFv: QVQLQQSGPGLVKPSQTLSLTCAISGDSVSSNTAAWNWIRQSPSRGLEWLGRTYYRSKWYNDYAVPVKSRITINPDTSKNQFSLQLNSVTPEDTAVYYCARETYYYGSGSYWDAFDIWGQGTTVTVSSGGGGSGSGGSGGGGSQSVVTQPPSVSAAPGQKVTISCSGSSSNIGNNYVSWYQQLPGTAPKLFIYKNNQRPSEVPDRFSGSKSGTSASLAISGLQSDDEADYYCAAWDDRLNGYVFGTGTKVTVL
notes: also called CD33 ScFv 10; not shown: His and Flag tags
Q: Does B2 bind (recombinant human CD33 [2])?
A: binds

B3: m1033-4 (VH-4) human anti-CD33 VH domain binder, soluble (VHH)
VHH: EVQLVESGGGLVQPGGSLRLSCAASGFTFSSYGMSWVRQAPRQGLEWVANIKQDGSEKYYADSVKGRFTISRDNSKNTLYLQMNSLRAEDTATYYCAKENVDWGQGTLVTVSS
notes: Human heavy chain variable domain only (not camelid), from a phage library, expressed in E. coli HB2151 and purified on Ni-NTA; also called CD33_4; CD33 VH-4; not shown: His and Flag tags
Q: Does B3 bind (recombinant human CD33 [1])?
A: binds

B4: m1033-15 (ScFv15) human anti-CD33 ScFv binder, soluble (scFv)
scFv: EVQLVQSGAEVKKPGESLKISCKGSGYSFTSYWIGWVRQMPGKGLEWMGIIYPGDSDTRYSPSFQGQVTISADKSISTAYLQWSSLKASDTAMYYCARLTTAGGMDVWGQGTTVTVSSGGGGSGGGGSGGGGSEIVLTQSPLSLPVTLGQPASISCRSSQSLVHSDGNTYLSWLHQRPGQPPRLLMYKISNRFSGVTDRFSGSGSGTDFTLKISRVEAEDVGVYYCMQGIHLPLTFGGGTKLEIK
notes: also called CD33 ScFv 15; not shown: His and Flag tags
Q: Does B4 bind (recombinant human CD33 [2])?
A: binds

B5: m1033-9 (ScFv9) human anti-CD33 ScFv binder, soluble (scFv)
scFv: QVQLVQSGAEVKKPGESLRISCKGSGFSFPTYWIGWVRQMPGKGLEWMGIIYPGDSDTRYSPSFQGQVTISADKSISTAYLQWSSLKASDTAMYYCARLVGDGYNTGAFDIWGQGTMVTVSSGGGGSGGGGSGGGGSDIVMTHTPLSLSVTPGQPASISCKSSQSLLHSNGKTYLYWYLQKPGQPPQLLIYGASNRFSGVPDRFSGSGSGTDFTLKISRVEAEDVGVYYCMQSIQLPITFGQGTRLEIK
notes: also called CD33 ScFv 9; not shown: His and Flag tags
Q: Does B5 bind (recombinant human CD33 [2])?
A: binds

B6: m1033-12 (ScFv12) human anti-CD33 ScFv binder, soluble (scFv)
scFv: QVQLQQSGPGLVKPSQTLSLTCAISGDSVSSNSAAWNWIRQSPSRGLEWLGGTYYRSKWYNDYAVSVKSRIIINADTSKNQFSLQLNSVTPEDTAVYYCARGYYYDSTDWFDPWGQGTLVTVSSGGGGSGGGGSGGGGSSSELTQDPTVSVALGQTVRITCQGDSLRSYYASWYQQKPGQAPVLVIYGKNNRPSGIPDRFSGSSSGNTASLTITGAQAEDEADYYCSSRDGSGHPYLFGPGTKVTVL
notes: also called CD33 ScFv 12; not shown: His and Flag tags
Q: Does B6 bind (recombinant human CD33 [2])?
A: binds
